Assay results published in US12661396B2, “Selective targeting of the TREML1/MD2 interaction by small peptide or protein and its use for vaccine adjuvants” (Ascendo Biotechnology, Inc., priority 2020, dated 2026).

Legend:
MD2 = target: T1, MD2 (Homo sapiens, UniProt Q9Y6Y9); test: Solid phase binding assay, TREML1 ECD to immobilized MD2; settings: absorbance at 450 nm; TREML1 ECD 2.5 ug/ml to 156 ng/ml; FIG. 2
T1 sequence (Q9Y6Y9 19-160): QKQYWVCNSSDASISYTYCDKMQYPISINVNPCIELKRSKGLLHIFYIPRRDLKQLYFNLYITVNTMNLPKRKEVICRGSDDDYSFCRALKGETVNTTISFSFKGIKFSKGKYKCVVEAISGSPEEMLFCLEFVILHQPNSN
Procedure: (§1) To identify potential binding partners of TREML1 ECD, we used solid phase binding assay to assess interactions between TREML1 ECD and candidate proteins. Briefly, various candidate proteins and BSA (as a negative control) were coated on a 96-well plate and TREML1 ECD at various concentrations were added to the wells. After binding and washing, an anti-TREML1 antibody conjugated with horse radish peroxidase (HRP) was added to each well. After washing, HRP substrate, TMB (3,3′,5,5′-tetramethylbenzidine), was added. After reaction, absorbance at 450 nm was measured to assess TREML1 binding.
(§2) To investigate the protein-protein interactions. Recombinant TLR4 (5 ug/ml in PBS), MD2 (5 ug/ml in PBS), CD14 (5 ug/ml in PBS), and BSA (negative control) proteins were plated separately on 96-well plates and incubated overnight at 4 degrees Celsius. The blocking buffer (2% BSA in PBS) was added to avoid the nonspecific binding for 2 hr at room temperature. A serial diluted TREML1 ECD (2.5 ug/ml to 156 ng/ml, 2-fold dilutions) solutions were added and allowed to incubate at room temperature for 2 hr. Then, anti-TREML1 antibody (1 ug/ml in PBS) was added for 1 hr. Next, a secondary antibody with HRP labeling, anti-Rat IgG-HRP, was added to the plates and incubated for 30 minutes at room temperature. […] Absorbance at OD450/540 nm was measured with a microplate reader.

TLR4 = TLR4 (Homo sapiens, UniProt O00206); test: Solid phase binding assay, TREML1 ECD to immobilized TLR4; settings: absorbance at 450 nm; TREML1 ECD 2.5 ug/ml to 156 ng/ml; FIG. 2
Procedure: as §1, §2

CD14 = target: T2, CD14 (Homo sapiens, UniProt P08571); test: Solid phase binding assay, TREML1 ECD to immobilized CD14; settings: absorbance at 450 nm; FIG. 2
T2 sequence (P08571 20-345): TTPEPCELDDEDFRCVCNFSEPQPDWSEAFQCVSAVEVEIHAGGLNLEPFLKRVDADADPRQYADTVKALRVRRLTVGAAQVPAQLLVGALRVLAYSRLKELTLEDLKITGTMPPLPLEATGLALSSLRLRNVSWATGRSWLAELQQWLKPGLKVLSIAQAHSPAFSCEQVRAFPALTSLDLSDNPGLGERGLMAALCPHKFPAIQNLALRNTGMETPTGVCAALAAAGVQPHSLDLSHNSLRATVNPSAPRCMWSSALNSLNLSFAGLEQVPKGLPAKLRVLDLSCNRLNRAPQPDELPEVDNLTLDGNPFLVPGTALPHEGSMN
Procedure: as §1, §2

[1] = system: THP1/XBlue/MD2/CD14 cells; test: TREML1 ECD binding to THP1/XBlue/MD2/CD14 cells and antibody competition (flow cytometry); format: cell-based; settings: TREML1 ECD 10 ug/ml, 1 hour; AF647-anti-human TREML1 staining; FIG. 4
Text: (§3) In addition to the solid phase binding assays, the TREML1 ECD binding was further evaluated using THP1/XBlue/MD2/CD14 cells (InvivoGen, San Diego, USA), which express MD2 and CD14. These cells (InvivoGen, San Diego, USA) are derived from the human monocytic THP1 cell line and express an NF-κB- and AP-1-inducible secreted embryonic alkaline phosphatase (SEAP) reporter gene.
To investigate the effects of anti-TLR4 antibody (HTA125, BioLegend #312814) and anti-MD2 antibody (18H10, ThermoFisher #MA5-33351) on TREML1 ECD binding to THP1/XBlue/MD2/CD14 cells, cells were pretreated with anti-MD2 antibody, anti-TLR4 antibody, IgG control, or a combination for 15 min at 37° C. with 5% CO2. After antibodies treatments, cells were treated with TREML1 ECD (10 ug/ml) and incubated for 1 hours. Cells were washed with PBS containing 1% FBS and stained with AF647-anti-human TREML1 antibody, followed by flow cytometric analysis.
The cells were resuspended in PBS containing 1% FBS at a density of 2×10^6 cells/ml and non-specific bindings of Abs were blocked using Human Fc Block (BD Biosciences #564220) at room temperature for 10 min. AF647-anti-human TREML1 (clone 268420) (R&D #FAB2394R) antibody was used as a detection antibody of TREML1 binding to cell surface. […] Binding analysis was performed on a CytoFLEX Flow Cytometer (Beckman Coulter) and the collected data were analyzed using Kazula software.

NF-κB = NF-κB activation in THP1/XBlue/MD2/CD14 cells (SEAP reporter, QUANTI-Blue); format: cell-based, human; settings: FIG. 5A
Text: as §3
(§4) To investigate the effects of anti-TLR4 antibody and anti-MD2 antibody on TREML1 ECD-triggered TLR response, THP1/XBlue/MD2/CD14 cells were pretreated with anti-TLR4 antibody, anti-MD2 antibody, or IgG control for the indicated groups and incubated for 15 minutes at 37° C., 5% CO2. After pretreatments, THP1/XBlue/MD2/CD14 cells were stimulated by TREML1 ECD (10 ug/ml) and seeded at a concentration of 1×10^6 cells/ml (200 ul per well) into wells of a 96-well plate for 18 hr at 37° C., 5% CO2. To determine the NF-κB activation, the supernatants of culture medium were collected and assessed with QUANTI-Blue™ reagent (InvivoGen) according to the manufacturer's instructions.

[2] = system: THP1/XBlue/MD2/CD14 cells; test: TNF-α secretion by THP1/XBlue/MD2/CD14 monocytes (ELISA); format: cell-based, human; settings: FIG. 5B
Procedure: as §4
Cell supernatants and plasma samples were harvested and stored at −80° C. Human TNFα concentrations were detected using TNF-α DuoSet ELISA kit (R&D #DY210) according to manufacturer's instructions. Signals were developed using 3,3′,5,5′-tetramethylbenzidine and the absorbance of 450 nm was detected with a microplate reader.

[3] = system: Human peripheral blood mononuclear cells (PBMCs); test: TLR agonist-induced TNF-α secretion in human PBMCs with or without TREML1 ECD; format: cell-based; settings: human PBMCs pretreated with hTREML1 10, 5, 1 ug/ml for 30 min
Procedure: Human peripheral blood samples from healthy volunteer donors were collected by venipuncture bled into ACD vacutainer tubes. Human peripheral blood mononuclear cells (PBMCs), which were separated from whole blood using Ficoll-Paque Plus (GE17-1440-03) according to the manufacturer's instructions. Human peripheral blood mononuclear cells (PBMCs) were pretreated with or without […]1 (10 ug/ml, 5 ug/ml and 1 ug/ml) and incubated for 30 min at 37° C. with 5% CO2. After treatments, cells were stimulated with TLR agonist, including R848 (InvivoGen #tlrl-r848) and ODN2395 (InvivoGen #tlrl-2395), and incubated at 37° C. with 5% CO2 for 18 hr. Supernatants of cell culture medium were collected for TNF-α measurements. Cell supernatants and plasma samples were harvested and stored at -80° C. Human TNFα concentrations were detected using TNF-α DuoSet ELISA kit (R&D #DY210) according to manufacturer's instructions. Signals were developed using 3,3',5,5'-tetramethylbenzidine and the absorbance of 450 nm was detected with a microplate reader.

Sequence of TLR4 (O00206 24-839): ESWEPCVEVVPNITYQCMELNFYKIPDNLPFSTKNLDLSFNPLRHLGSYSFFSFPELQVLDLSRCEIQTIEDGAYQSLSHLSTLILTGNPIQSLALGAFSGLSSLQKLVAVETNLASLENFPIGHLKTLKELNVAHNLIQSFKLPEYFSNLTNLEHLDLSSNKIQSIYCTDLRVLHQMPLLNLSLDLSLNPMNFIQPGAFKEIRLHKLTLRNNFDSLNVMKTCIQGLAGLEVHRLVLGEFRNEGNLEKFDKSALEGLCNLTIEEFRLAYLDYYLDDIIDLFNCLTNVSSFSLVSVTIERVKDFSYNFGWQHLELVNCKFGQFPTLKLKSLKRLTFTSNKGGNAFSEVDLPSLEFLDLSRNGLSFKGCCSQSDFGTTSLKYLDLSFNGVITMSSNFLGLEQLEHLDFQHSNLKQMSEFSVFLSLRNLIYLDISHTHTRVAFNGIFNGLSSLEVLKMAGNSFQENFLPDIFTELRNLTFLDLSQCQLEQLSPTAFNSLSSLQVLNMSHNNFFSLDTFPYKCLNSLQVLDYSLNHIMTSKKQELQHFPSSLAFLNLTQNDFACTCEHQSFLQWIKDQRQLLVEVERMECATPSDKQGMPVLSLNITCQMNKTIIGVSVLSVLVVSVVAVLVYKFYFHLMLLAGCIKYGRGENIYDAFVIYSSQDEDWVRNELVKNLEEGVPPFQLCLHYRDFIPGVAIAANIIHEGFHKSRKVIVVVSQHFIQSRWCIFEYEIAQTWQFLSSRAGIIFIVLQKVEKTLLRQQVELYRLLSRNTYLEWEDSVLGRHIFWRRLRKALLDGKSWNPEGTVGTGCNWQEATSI

TREML1 ECD binding to immobilized CD14 (CD14): does not bind to CD14
B1: TREML1 ECD: human TREML1 extracellular domain, SEQ ID NO:1; recombinant, E. coli, polyhistidine tag at the N-terminus (protein)
chain: QGIVGSLPEVLQAPVGSSILVQCHYRLQDVKAQKVWCRFLPEGCQPLVSSAVDRRAPAGRRTFLTDLGGGLLQVEMVTLQEEDAGEYGCMVDGARGPQILHRVSLNILPPEEEEETHKIGSLAENAFSDPAGSANPLEPSQDEKSIP
modifications: N-terminal polyhistidine tag; homo sapiens
notes: recombinant, E. coli, polyhistidine tag at the N-terminus
TREML1 ECD binding to immobilized MD2 (MD2): binds MD2 and TLR4 in a concentration-dependent manner | TREML1 ECD binding to immobilized TLR4 (TLR4): binds MD2 and TLR4 in a concentration-dependent manner | binding to THP1/XBlue/MD2/CD14 cells [1]: can bind to the THP1/XBlue/MD2/CD14 cells | NF-κB activation in THP1/XBlue/MD2/CD14 monocytes (NF-κB): induced activation of NF-κB | TNF-α secretion by THP1/XBlue/MD2/CD14 monocytes [2]: induces THP1/XBlue/MD2/CD14 monocyte activation | effect on R848 (TLR7/8)-induced TNF-α secretion ([3]; FIG. 7A): enhanced in the presence of TREML1 ECD | effect on ODN 2395 (TLR9)-induced TNF-α secretion ([3]; FIG. 7B): enhanced in the presence of TREML1 ECD in a dose-dependent manner
